From patent US20240002818

System: T1, Myotis lucifugus helper (Myotis lucifugus)
T1 sequence: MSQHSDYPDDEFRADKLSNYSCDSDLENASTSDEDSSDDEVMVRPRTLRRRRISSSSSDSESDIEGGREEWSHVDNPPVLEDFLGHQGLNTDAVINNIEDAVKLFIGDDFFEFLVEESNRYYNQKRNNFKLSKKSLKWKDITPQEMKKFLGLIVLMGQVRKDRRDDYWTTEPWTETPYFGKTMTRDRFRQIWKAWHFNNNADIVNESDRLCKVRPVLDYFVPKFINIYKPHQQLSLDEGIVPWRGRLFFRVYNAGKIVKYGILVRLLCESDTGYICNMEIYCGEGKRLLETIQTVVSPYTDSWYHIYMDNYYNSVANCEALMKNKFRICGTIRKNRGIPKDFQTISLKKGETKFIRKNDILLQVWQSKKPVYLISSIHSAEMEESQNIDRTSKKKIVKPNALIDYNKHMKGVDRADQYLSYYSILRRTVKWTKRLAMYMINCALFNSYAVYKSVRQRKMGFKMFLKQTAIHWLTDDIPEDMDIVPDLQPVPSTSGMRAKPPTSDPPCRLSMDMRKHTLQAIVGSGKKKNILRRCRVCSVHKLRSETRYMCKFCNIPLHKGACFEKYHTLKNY
Test: cell_activity
Details: HEK293, GFP+ cells day 21 relative to day 2; indirect evidence of end recognition

Myotis lucifugus donor ends (left/right)
activity (% integration efficiency): 3.5
